Test system: U251 human glioblastoma cell line
Test: in vitro FM-HCR assay of MGMT activity (mPlum O^6MeG reporter plasmid)
Format: cell-based
Details: for Reporter expression (%) mean, O^6BG: 100 μM O^6BG; for Reporter expression (%) mean, O^6BG / Reporter expression (%) mean, DMSO: U251 cells, flow cytometry 24 h after transfection, damaged/undamaged reporter, inversely related to MGMT activity; for Reporter expression (%) mean, DMSO: 0.1% DMSO; for MGMT activity (a.u.) DMSO / MGMT activity (% of WT) DMSO: DMSO condition; for MGMT activity (a.u.) DMSO / MGMT activity (a.u.) O^6BG: determined from percent reporter expression; for MGMT activity (% of WT) DMSO / MGMT activity (% of WT) O^6BG: relative to wild-type MGMT in same condition; for Relative MGMT activity (%): MGMT activity (a.u.) in O^6BG divided by DMSO x 100, higher values indicate resistance; for MGMT activity (a.u.) O^6BG / MGMT activity (% of WT) O^6BG: O^6BG condition; for Ratio percent reporter expression (O^6BG/DMSO): lower values indicate resistance to O^6BG; for O^6BG resistance relative to WT (%): percentage difference in relative MGMT activity between variant and wild-type MGMT
Summary of the method: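 U251 cells transfected with MGMT variant plasmid, mPlum O^6MeG reporter (or undamaged mPlum plasmid) and BFP control, in 100 μM O^6BG or 0.1% DMSO; flow cytometry at 24 h. mPlum count×intensity normalized to BFP; percent reporter expression = damaged/undamaged ×100, inversely related to MGMT activity.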

Molecule | Reporter expression (%) mean, O^6BG [%] | Reporter expression (%) mean, DMSO [%] | MGMT activity (a.u.) DMSO [a.u.] | MGMT activity (% of WT) DMSO | Relative MGMT activity (%) | MGMT activity (a.u.) O^6BG [a.u.] | MGMT activity (% of WT) O^6BG | Ratio percent reporter expression (O^6BG/DMSO) | O^6BG resistance relative to WT (%)
S159Y: MGMT polypeptide with mutation S159Y (protein) MDKDCEMKRTTLDSPLGKLELSGCEQGLHEIKLLGKGTSAADAVEVPAPAAVLGGPEPLMQCTAWLNAYFHQPEAIEEFPVPALHHPVFQQESFTRQVLWKLLKVVKFGEVISYQQLAALAGNPKAARAVGGAMRGNPVPILIPCHRVVCSSGAVGNYYGGLAVKEWLLAHEGHRLGKPGLGGSSGLAGAWLKGAGATSGSPPAGRN | 142.7 | 26.0 | 3.85 | 71.2 % of WT | 18.2 | 0.70 | 49.1 % of WT | 5.49 | −31.0
G160E: MGMT polypeptide with mutation G160E (protein) MDKDCEMKRTTLDSPLGKLELSGCEQGLHEIKLLGKGTSAADAVEVPAPAAVLGGPEPLMQCTAWLNAYFHQPEAIEEFPVPALHHPVFQQESFTRQVLWKLLKVVKFGEVISYQQLAALAGNPKAARAVGGAMRGNPVPILIPCHRVVCSSGAVGNYSEGLAVKEWLLAHEGHRLGKPGLGGSSGLAGAWLKGAGATSGSPPAGRN | 63.3 | 15.3 | 6.56 | 121.3 % of WT | 24.1 | 1.58 | 110.7 % of WT | 4.15 | −8.8
G160A: MGMT polypeptide with mutation G160A (protein) MDKDCEMKRTTLDSPLGKLELSGCEQGLHEIKLLGKGTSAADAVEVPAPAAVLGGPEPLMQCTAWLNAYFHQPEAIEEFPVPALHHPVFQQESFTRQVLWKLLKVVKFGEVISYQQLAALAGNPKAARAVGGAMRGNPVPILIPCHRVVCSSGAVGNYSAGLAVKEWLLAHEGHRLGKPGLGGSSGLAGAWLKGAGATSGSPPAGRN | 74.5 | 15.5 | 6.45 | 119.4 % of WT | 20.8 | 1.34 | 94.0 % of WT | 4.81 | −21.3
G160H: MGMT polypeptide with mutation G160H (protein) MDKDCEMKRTTLDSPLGKLELSGCEQGLHEIKLLGKGTSAADAVEVPAPAAVLGGPEPLMQCTAWLNAYFHQPEAIEEFPVPALHHPVFQQESFTRQVLWKLLKVVKFGEVISYQQLAALAGNPKAARAVGGAMRGNPVPILIPCHRVVCSSGAVGNYSHGLAVKEWLLAHEGHRLGKPGLGGSSGLAGAWLKGAGATSGSPPAGRN | 21.3 | 10.3 | 9.68 | 179.0 % of WT | 48.4 | 4.69 | 328.1 % of WT | 2.06 | 83.3
wild-type MGMT: reference MGMT polypeptide according to SEQ ID NO: 1 (GenBank NP_002403.3); used as control (protein, REGION 1..207: note = Wild Type MGMT, used as control) MDKDCEMKRTTLDSPLGKLELSGCEQGLHEIKLLGKGTSAADAVEVPAPAAVLGGPEPLMQCTAWLNAYFHQPEAIEEFPVPALHHPVFQQESFTRQVLWKLLKVVKFGEVISYQQLAALAGNPKAARAVGGAMRGNPVPILIPCHRVVCSSGAVGNYSGGLAVKEWLLAHEGHRLGKPGLGGSSGLAGAWLKGAGATSGSPPAGRN | 70.0 | 18.5 | 5.41 | 100.0 % of WT | 26.4 | 1.43 | 100.0 % of WT | 3.78 | 0.0
A170S: MGMT polypeptide with mutation A170S (protein) MDKDCEMKRTTLDSPLGKLELSGCEQGLHEIKLLGKGTSAADAVEVPAPAAVLGGPEPLMQCTAWLNAYFHQPEAIEEFPVPALHHPVFQQESFTRQVLWKLLKVVKFGEVISYQQLAALAGNPKAARAVGGAMRGNPVPILIPCHRVVCSSGAVGNYSGGLAVKEWLLSHEGHRLGKPGLGGSSGLAGAWLKGAGATSGSPPAGRN | 85.0 | 15.8 | 6.35 | 117.5 % of WT | 18.5 | 1.18 | 82.4 % of WT | 5.40 | −29.9
G160P: MGMT polypeptide with mutation G160P (protein) MDKDCEMKRTTLDSPLGKLELSGCEQGLHEIKLLGKGTSAADAVEVPAPAAVLGGPEPLMQCTAWLNAYFHQPEAIEEFPVPALHHPVFQQESFTRQVLWKLLKVVKFGEVISYQQLAALAGNPKAARAVGGAMRGNPVPILIPCHRVVCSSGAVGNYSPGLAVKEWLLAHEGHRLGKPGLGGSSGLAGAWLKGAGATSGSPPAGRN | 47.5 | 22.8 | 4.40 | 81.3 % of WT | 47.9 | 2.11 | 147.4 % of WT | 2.09 | 81.2
G160D: MGMT polypeptide with mutation G160D (protein) MDKDCEMKRTTLDSPLGKLELSGCEQGLHEIKLLGKGTSAADAVEVPAPAAVLGGPEPLMQCTAWLNAYFHQPEAIEEFPVPALHHPVFQQESFTRQVLWKLLKVVKFGEVISYQQLAALAGNPKAARAVGGAMRGNPVPILIPCHRVVCSSGAVGNYSDGLAVKEWLLAHEGHRLGKPGLGGSSGLAGAWLKGAGATSGSPPAGRN | 72.8 | 23.0 | 4.35 | 80.4 % of WT | 31.6 | 1.37 | 96.2 % of WT | 3.16 | 19.6

From patent US20250135039A1, “INHIBITOR-RESISTANT MGMT MODIFICATIONS AND MODIFICATION OF MGMT-ENCODING NUCLEIC ACIDS” (Ensoma, Inc., priority 2022, published 2025)
